{"source": "the nanobody polyreactivity screen of Harvey et al. (2022)"}
{"experiment": "yeast display, Sf9 membrane polyspecificity reagent, FACS + sequencing; frameworks hold sequencing errors", "how_it_was_run": "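A nanobody's polyreactivity label depends on the gate it was sorted from. Yeast display cells were stained with 10% biotinylated, detergent-solubilized Sf9 membrane reagent for 1 hour at 4 °C, enriched on streptavidin microbeads and sorted by FACS. The low and high (top ~1%) gates were set on anti-HA fluorescence for expression and streptavidin fluorescence for reagent binding.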"}
{"sequence": "QVHLVESGGGLVQAGGSLRLSCAASGRTFGLYDMGWYRQAPGKERELVAGITRRGGRTYYADSVKGRFTISRDNAKNTVYLQMNSLKPEDTAVYYCAAGTIYLRHAQSPFDYWGQGTQVTVSS", "polyreactivity (PSR sort gate)": "high polyreactivity"}
{"sequence": "QVHLVESGGGLVQAGGSLRLSCAASGRTFGYYAMGWYRHAPGKERELVAAISRSAATTYYADSVKGRFSISRDNAKNTVYLQMYSLKPDDTAVYYCAAGGRTYAPCDYGYWGQGTQVTVSS", "polyreactivity (PSR sort gate)": "high polyreactivity"}
{"sequence": "QVHLVESGGGLVQAGGSLRLSCAASGRTFGYYAMGWYRPAPWKEWELVAAITQSGGSTYYADSVKGRFTISRDTAKITVYLQMHSLKPEDTAVYYCAADDKYFYPGNGYWGQGTQVTVSS", "polyreactivity (PSR sort gate)": "high polyreactivity"}
{"sequence": "QVHLVESGGGLVQAGGSLRLSCAASGRTFIYYAMGWYRQAPGKERELVAAISSGGSTDYADSVKGRFTISRDNAKNTVYLQMNSLKPEDTAVYYCSAVVGYITYYGYDYWGQGTQVTVSS", "polyreactivity (PSR sort gate)": "low polyreactivity"}
{"sequence": "QVHLVESGGGLVQAGGSLRLSCAASGRTFRLYAMGWYRQAPGKERELVAAITRGGRTNYADSVKGRFTISRDNAKNTVFLQMISLKPEDTAVYYCAARYVERHTDYYYWGQGTQVTVSS", "polyreactivity (PSR sort gate)": "low polyreactivity"}
{"sequence": "QVHLVESGGGLVQAGGSLRLSCAASGRTFRSNAMGWYRQAPGKEREFVAAISGRGGITYYADSVKGRFTISRDNAKNTVYLQMNSLKPEDTAVYYCNRDVKYHDYVYVTAIKSPGYNYWGQGTQVTVSS", "polyreactivity (PSR sort gate)": "low polyreactivity"}
{"sequence": "QVHLVESGGGLVQAGGSLRLSCAASGRTFYIYAMGWYRQAPGKERELVAGIRWSGDSTYYADSVKGRFTISRDNAKNTVYLQMNRLKPEDTAVYYCAADISYELLSYYWYYYWGQGSQVTVSS", "polyreactivity (PSR sort gate)": "high polyreactivity"}
{"sequence": "QVHLVESGGGLVQAGGSLRLSCAASGRTFYLYTMGWYRQAPGKEREFVAIISRSGASTRYADSVKGRFTISRDNAKNTVYLQMNSLKPEDTAVYYCAAYVGYPYDYWGQGTQVTVSS", "polyreactivity (PSR sort gate)": "high polyreactivity"}
{"sequence": "QVHLVESGGGLVQAGGSLRLSCAASGRTFYYNAMGWYRQEPGKEREFVAAIRYSGSITYYADSVKGRFTISRDNAKNTVYLQMNSLKPEDTAVYYCAADYVSRRYYYWGQGTQVTVSS", "polyreactivity (PSR sort gate)": "high polyreactivity"}
{"sequence": "QVHLVESGGGLVQAGGSLRLSCAASGRTIQTYTMGWYRQAPGKERELVAVITTRGGRTYYADSVKGRFTISRDNAKNTVYLQMNILKPEDTGVYYCNKGITTRSVRSYDYWGQGTQVTVSS", "polyreactivity (PSR sort gate)": "high polyreactivity"}
{"sequence": "QVHLVESGGGLVQAGGSLRLSCAASGSIFASNTMGWYRQAPGKERELVAGITKIGSSTYYADSVKGRFTISRDNAKNTVYLQMNSLKPEDTAVYYCNAYGPNIYSSRYDYWGQGTQVTVSS", "polyreactivity (PSR sort gate)": "low polyreactivity"}
{"sequence": "QVHLVESGGGLVQAGGSLRLSCAASGSIFAVNAMGWYRQAPGKERELVAVITSRGGSTYYADSVKGRFTISRDNAKNTVYLQMNSLKPEDTAVYYCAARPGAAGYKYYYWGQGTQVTVSS", "polyreactivity (PSR sort gate)": "high polyreactivity"}
{"sequence": "QVHLVESGGGLVQAGGSLRLSCAASGSIFFVNAMGWYRQAPGKERELVADISSGGSTNYADSVKGRFTISRDNAKNTVYLQMNSLKPEDTAVYYCNTDEPPIYERFPYDYWGQGTQVTVSS", "polyreactivity (PSR sort gate)": "low polyreactivity"}
{"sequence": "QVHLVESGGGLVQAGGSLRLSCAASGSIFGRYAMGWYRQAPGKEREFVAAISRGATNTYYADSVKGRFTISRDNAKNTVYLQMNSLKPEDTAVYYCARTQRYDYGYDYWGQGTQVTVSS", "polyreactivity (PSR sort gate)": "low polyreactivity"}
{"sequence": "QVHLVESGGGLVQAGGSLRLSCAASGSIFIYNAMGWYRQAPGKERELVAAISWSGDSTYYADSVKGRFTISRDNAKNTVYLQMNSLKPEDTAVYYCNAKPSRKWGRGTGKQYDYWGQGTQVTVSS", "polyreactivity (PSR sort gate)": "high polyreactivity"}
{"sequence": "QVHLVESGGGLVQAGGSLRLSCAASGSIFKKNTLGWYRQAPGKERELVAVISSSGTRTYYADSVKGRFTISRDNAKNTVYLQMNSLKPEDTAVYYCARRAGGERDDYWGQGTQVTVSS", "polyreactivity (PSR sort gate)": "high polyreactivity"}
{"sequence": "QVHLVESGGGLVQAGGSLRLSCAASGSIFKYNAMGWYRQSPGKERELVAAISSGGSTNYADSVKGRFTISRDNAKNTVYLQMNSLKPEDTAVYYCAKDRRRWYYTRDYWGQGTQVTVSS", "polyreactivity (PSR sort gate)": "low polyreactivity"}
{"sequence": "QVHLVESGGGLVQAGGSLRLSCAASGSIFLAYAMGWYRQAPGKERELVAAISGGGSTYADSVKGRFTISRDNAKNTVYLQMNSLKPEDTAVYYCNADGRGDRFWSNFRFDYWGQGTQVTVSS", "polyreactivity (PSR sort gate)": "low polyreactivity"}
{"sequence": "QVHLVESGGGLVQAGGSLRLSCAASGSIFPYNVMGWYTQAPGTERELVAAISTRGGRTYYADSVKGRFTISRDNANNTVYLELNSLKPEDTAVYDCATAGGPYSDYGYYWGQGTQVTVSS", "polyreactivity (PSR sort gate)": "high polyreactivity"}
{"sequence": "QVHLVESGGGLVQAGGSLRLSCAASGSIFRGYAMGWSRQAPGKERELVAAITSGGSTNYADSVNGRFTISRDNANNTVYLQMNSLKPEDTAVYYCNTVRWGRRTTFYYWGQGTQVTVSS", "polyreactivity (PSR sort gate)": "low polyreactivity"}
{"sequence": "QVHLVESGGGLVQAGGSLRLSCAASGSIFRNNAMGWYRQAPGKARELVAVISRSGGSTYYADSVKGRFTISRDNAKNTVYLDMNSLKPEDTAVYYCDVGYWGRLGFRGYGYWGQGTQVTVSS", "polyreactivity (PSR sort gate)": "low polyreactivity"}
{"sequence": "QVHLVESGGGLVQAGGSLRLSCAASGSIFSSYAMGWYRQATGKERELVASISSGGSTNYADSVKGRFTISRDNAKNTVYLQMNSLKPEDTAVYYCNVDLYNWRGDSTGYDYWGQGTQVTVSS", "polyreactivity (PSR sort gate)": "low polyreactivity"}
{"sequence": "QVHLVESGGGLVQAGGSLRLSCAASGSIFVQYAMGWYRQAPGKERELVAAITRDGDRTYYADSVKGRFTISRDNAKNTVYLQMNSLKPEDTAVYYCAARHSSIRSPQYDYWGQGTQVTVSS", "polyreactivity (PSR sort gate)": "high polyreactivity"}
{"sequence": "QVHLVESGGGLVQAGGSLRLSCAASGSIFYYYGMGWYRQAPGIERELVAAISSGGRTYYADSVKGRFTISRDNAKNTVYLQMDSLKPEDTAVYYCAKPGSYAVYSGWHDYWGQGTQVTVSS", "polyreactivity (PSR sort gate)": "high polyreactivity"}
{"sequence": "QVHLVESGGGLVQAGGSLRLSCAASGSIKQNAMGWYRQAPGKERELVAAIDWDGSSTYYADSVKGRFTISRDNAKNTVYLQMNSLKPEDTAVYYCNTDYTGPDGTDEYDYWGQGTQVTVSS", "polyreactivity (PSR sort gate)": "low polyreactivity"}
{"sequence": "QVHLVESGGGLVQAGGSLRLSCAASGSILTDNAMGWYRQAPGKERELVAAITSSGNTNYADSVKGRFTISRDNAKNTVYLQMNSLKPEDTAVYYCAADSYYKHWTDWLPVGEDYWGQGTEVTVSS", "polyreactivity (PSR sort gate)": "low polyreactivity"}
{"sequence": "QVHLVESGGGLVQAGGSLRLSCAASGSILYGNAMGWYRQAPGKERELVAAISYSGGRTYYADSVKGRFTISRDNAKNTVYLQMNSLKPEDTAVYYCAALHSGRVQNFDYWGQGTQVTVSS", "polyreactivity (PSR sort gate)": "high polyreactivity"}
{"sequence": "QVHLVESGGGLVQAGGSLRLSCAASGSIRVEYAMGWNRQAPGKERELVATITDSGNTNYADSVKGRFTISRDNAKNTVYLQMNSLKPEDTAVYYCAADAYPYYWLDQAFGYDYWGQGTQVTVSS", "polyreactivity (PSR sort gate)": "low polyreactivity"}
{"sequence": "QVHLVESGGGLVQAGGSLRLSCAASGSIVFLYAMGWYRQAPGKEWELVAAISGRGTSTDYADSVKGRFTISRDNAKNTVYLQLTSLKPEDTAVYFCAAKYNRPYQGWRVNHWGQGTQVTVSS", "polyreactivity (PSR sort gate)": "high polyreactivity"}
{"sequence": "QVHLVESGGGLVQAGGSLRLSCAASGSIYTRYAMGWYRQAPGKERDLVAAITVSGGSTYYADSVKGRFTISRDNAKNTVYLQMNSLKPEDTAVYYCARRAWSGPGYFKAIRRFDYWGQGTQVTVSS", "polyreactivity (PSR sort gate)": "low polyreactivity"}
{"sequence": "QVHLVESGGGLVQAGGSLRLSCAASGSNCTYYAMGWYRQAPGKERELVAAIDFSGASTSYADSVKGRFTISRDNAKNTVYFQMNSLKPEDTAVYYCAAVLYWYPPYYYWGQGTQVTVSS", "polyreactivity (PSR sort gate)": "low polyreactivity"}
{"sequence": "QVHLVESGGGLVQAGGSLRLSCAASGSNFVGNAMGWYRQAPGKERELVATISNSGGRTYYADSVKGRFTISRDNAKNTVYLQMNSLKPEDTAVYYCAADHPAFGPGYSFDFWGQGTQVTVSS", "polyreactivity (PSR sort gate)": "low polyreactivity"}
{"sequence": "QVHLVESGGGLVQAGGSLRLSCAASGSTFAIYAMVWYRQAPGKERELVAAIRQRAGSTYYADSVKGRFTISRDNAKNTVYLQMNSLKPEDTAVHYCATATRPISRGYWGQGTQVTVSS", "polyreactivity (PSR sort gate)": "low polyreactivity"}
{"sequence": "QVHLVESGGGLVQAGGSLRLSCAASGSTFFIYTMGWYRQAPGKEREFVAAISWTGGRTYYADSVKGRFTISRDNAKNTVYLQMNSLKPEDTAVYYCAARYKYSSYDYWGEGTQVTVSS", "polyreactivity (PSR sort gate)": "high polyreactivity"}
{"sequence": "QVHLVESGGGLVQAGGSLRLSCAASGSTFFYYAMGWYRQAPGKERELVAAISNSGGNTFYADSVKGRFTISRDNAKNTVYLQMNSLKPEDTAVYYCAADEIGHFQWRDGDYWGQGTQVTVSS", "polyreactivity (PSR sort gate)": "low polyreactivity"}
{"sequence": "QVHLVESGGGLVQAGGSLRLSCAASGSTFGRYTMGWYRQAPGKERELVAAITSGGGSTYYADSVKGRFTISRDNAKNTVYLQMNSLKPEDTAVYYCAARSLVQDHAYGYNYWGQGTQVTVSS", "polyreactivity (PSR sort gate)": "low polyreactivity"}
{"sequence": "QVHLVESGGGLVQAGGSLRLSCAASGSTFGSNAMGWYRQAPGKERELVAAIRGIVGSKYYADSVKGRFTISRDNAKNTVYLLMNSLKPEDTAVYYCAADIDFERDRYVYWGQGTQVTVSS", "polyreactivity (PSR sort gate)": "low polyreactivity"}
{"sequence": "QVHLVESGGGLVQAGGSLRLSCAASGSTFKRYAMGWYRPAPGKERELVAAIRRGGITNYADSVKGRFTISRDNAKNTVYLQMNSLKPEDTAVYYCAKDGVTYPYSYEYDYWGQGTQVTVSS", "polyreactivity (PSR sort gate)": "low polyreactivity"}
{"sequence": "QVHLVESGGGLVQAGGSLRLSCAASGSTFLANTMGWYRQAPGKERELVAAITRRGGSTRYADSVKGRFTISRDNAKNTVFLEMNSLKPEDTAVYYCAAPWFRDTRGYSLYDYWGQGTQVTVSS", "polyreactivity (PSR sort gate)": "high polyreactivity"}
{"sequence": "QVHLVESGGGLVQAGGSLRLSCAASGSTFQFNAMGWYRQAPGKERELVATISDGGSTSYADSVKGRFTISRDNAKNTVYLQMNSLKPEDTAVYFCARDRFYDFLRVDYWGQGTQVTVSS", "polyreactivity (PSR sort gate)": "low polyreactivity"}
{"sequence": "QVHLVESGGGLVQAGGSLRLSCAASGSTFRDYDMGWYRQAPGKERELVAAISLSGGLTHYADSVKGRFTISRDNGKNTVYLQMNSLKPEDTAVYYCAARNTGPVQYYYWGQGTQVTVSS", "polyreactivity (PSR sort gate)": "low polyreactivity"}
{"sequence": "QVHLVESGGGLVQAGGSLRLSCAASGSTFSGYAMGWDRQAPGKDREFVATITSTGSTNYADSVKGRFTSSRDNAKNTVYLQMNSLNPEENAVYYCHSRYWFVERYFLHYASVRYDYWGQGTKVTVSS", "polyreactivity (PSR sort gate)": "low polyreactivity"}
{"sequence": "QVHLVESGGGLVQAGGSLRLSCAASGSTFTSYAMGWYRQAPGKERELVATISKISGSTYYADSVKGRFTISRDNAKNTVYLQMNSLKPEDTAVYYCAAKQGWVQSSILWYRAYGTLNVRRERMDYWGQGTQVTVSS", "polyreactivity (PSR sort gate)": "high polyreactivity"}
